Measurements from patent publication US6465618B1, “Mitogen activated protein kinase (MAPK) kinase” (Asahi Kasei Kabushikiki Kaisha, priority 1997, dated 2002).

How the values were obtained:
SAPK3 = target: T1, SAPK3 (Mus musculus, UniProt O08911); assay: Activation of MAP kinase by recombinant MAPK kinase in vitro, substrate phosphorylation by autoradiography; assay type: biochemical; settings: 0.1 μg MAPK kinase, 0.5 μg His-SAPK3, 30° C. 30 minutes
T1 construct: His (N); made in house; host or cells: E. coli
T1 sequence (O08911 1-367): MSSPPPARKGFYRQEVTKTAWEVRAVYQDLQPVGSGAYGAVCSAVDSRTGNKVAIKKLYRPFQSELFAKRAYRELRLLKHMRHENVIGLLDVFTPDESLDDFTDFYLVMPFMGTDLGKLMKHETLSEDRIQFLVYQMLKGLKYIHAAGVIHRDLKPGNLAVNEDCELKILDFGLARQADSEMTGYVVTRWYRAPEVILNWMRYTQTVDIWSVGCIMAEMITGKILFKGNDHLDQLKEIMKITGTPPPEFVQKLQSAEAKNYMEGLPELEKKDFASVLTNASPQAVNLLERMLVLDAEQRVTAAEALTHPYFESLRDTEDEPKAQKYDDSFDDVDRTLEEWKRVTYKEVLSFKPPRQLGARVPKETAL
Description: (§1) 0.1 μg of a MAPK kinase (His-MKK7, GST-SEK1 and His-MKK6 were separately used) and 0.5 μg of a MAP kinase (His-MAPK, His-SAPK, His-p38 and His-SAPK3 were separately used), both prepared in item (1) above, were incubated with 10 μl of a solution containing 100 μM ATP, 20 mM MgCl2, 2 mM EGTA and 20 mM Tris-HCl (pH 7.5) at 30° C. for 30 minutes, to thereby activate the MAP kinase. Subsequently, 5 μl of a solution containing a substrate for the MAP kinase and 1 μCi of [γ-^32P] ATP (manufactured and sold by Amersham International, England) was added to the mixture, and further incubated at 20° C. for 20 minutes. As a substrate for the MAP kinase, 3 μg of myelin basic protein (MBP) was used for MAPK and SAPK3, 3 μg of GST-cJun (1-79) was used for SAPK, and 3 μg of ATF-2 was used for p38. The MBP used as the substrate was obtained by purifying Brain Acetone Powder (manufactured and sold by Sigma, USA), and ATF-2 was a kind gift of Dr. Suzanne J. Baker and Dr. Tom Curran (St. Jude Children's Research Hospital). After incubation, a sample was obtained from each incubated mixture and resolved on SDS-polyacrylamide gel electrophoresis. Then, the radioactivity of each of MBP, c-Jun and ATF-2 was detected by autoradiography.

SAPK = target: T2, SAPK (Mus musculus, UniProt Q9WTU6); assay: as above; assay type: biochemical; settings: 0.1 μg MAPK kinase, 0.5 μg His-SAPK, 30° C. 30 minutes; substrate GST-cJun (1-79)
T2 construct: His (N); made in house; host or cells: E. coli
Description: as §1

p38 = target: T3, p38 (Mus musculus, UniProt P47811); assay: as above; assay type: biochemical; settings: 0.1 μg MAPK kinase, 0.5 μg His-p38, 30° C. 30 minutes; substrate ATF-2
T3 construct: His (N); made in house; host or cells: E. coli
T3 sequence (P47811 whole entry): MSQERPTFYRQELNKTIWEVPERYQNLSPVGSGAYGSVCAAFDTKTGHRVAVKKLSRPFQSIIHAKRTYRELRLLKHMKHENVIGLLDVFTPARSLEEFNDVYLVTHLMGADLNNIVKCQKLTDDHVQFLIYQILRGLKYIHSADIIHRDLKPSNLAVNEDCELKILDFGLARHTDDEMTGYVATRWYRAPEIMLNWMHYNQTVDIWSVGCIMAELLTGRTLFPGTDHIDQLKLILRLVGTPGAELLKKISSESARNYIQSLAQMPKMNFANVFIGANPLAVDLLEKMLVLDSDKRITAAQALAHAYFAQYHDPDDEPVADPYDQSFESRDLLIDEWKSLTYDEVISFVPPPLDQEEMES
Description: as §1

[1] = Optimum pH and heat deactivation of MKK7; assay type: physicochemical
Description: In addition to MKK7, MKK6 and SEK1 were used as the MAPK kinase, and MAPK, SAPK, p38 and SAPK3 were used as the MAP kinase. A MAPK kinase gene and a MAP kinase gene were cotransfected to a cell in different combinations, and the activity of the MAP kinase in vivo was determined by measuring the amount of a substrate (for the transfected MAP kinase) phosphorylated by the cotransfected cells. […] From this experiment, it has become apparent that the optimum pH for MKK7 is in the range of from pH 7 to 8, and MKK7 is deactivated at 70° C. or higher.

SAPK/JNK = assay: Inhibition of TNF-α-induced SAPK activation by the dominant negative form of MKK7 in KB cells; settings: KB cells cotransfected with pSRα-HA-SAPKα and pSRα-MKK7KL; TNF-α 100 ng/ml, 15 minutes; sorbitol- and anisomycin-induced activation not suppressed
Description: KB cells were cotransfected with the vector pSRα-HA-SAPKα (0.5 μg) and either the vector pSRα or the vector pSRα-MKK7KL (1.5 μg) using Lipofectamine (manufactured and sold under the brand of GIBCO BRL, USA). Twenty-four hours after the transfection, TNF-α (100 ng/ml), sorbitol (0.5 M) and anisomycin (100 μg/ml) were individually used to stimulate the transfected cells for 15 minutes. Next, the cell extracts of the stimulated cells were individually prepared as follows. The cells were suspended in 0.7 M NaCl solution and washed once with ice-cold HEPES-buffered saline. Subsequently, the washed cells were homogenized in a buffer containing 20 mM Tris-HCl (pH 7.5), 2 mM EGTA, 25 mM β-glycerophosphate, 2 mM DTT, 1 mM vanadate, 1 mM PMSF and 1% aprotinin, wherein the buffer was used in an amount of 300 μl relative to cells obtained per plate (diameter: 100 mm). The resultant cell homogenate was centrifuged at 1000×g for 3 minutes, followed by a further centrifugation at 400,000×g for 20 minutes, thereby obtaining a supernatant. The obtained supernatant was used as the cell extract.
Each of the cell extracts was individually immunoprecipitated with anti-HA antibody (anti-hemagglutinin antibody) (12CA5), and the kinase activity of HA-SAPK in the immunoprecipitate was determined.

JNK1 = target: T4, JNK1 (Homo sapiens, UniProt P45983); assay: Activity of activated MKK7 on JNK1, dot hybridization with anti-activated JNK antibody; assay type: biochemical; settings: 0.1 μM MKK7, 0.2 μM JNK1, 0.1 mM ATP, 30° C. 2 hours
T4 construct: GST (N); made in house; host or cells: E. coli (GST-MKK7: E. coli DH5α co-transformed with a MEKK1 vector)
T4 sequence (P45983 whole entry): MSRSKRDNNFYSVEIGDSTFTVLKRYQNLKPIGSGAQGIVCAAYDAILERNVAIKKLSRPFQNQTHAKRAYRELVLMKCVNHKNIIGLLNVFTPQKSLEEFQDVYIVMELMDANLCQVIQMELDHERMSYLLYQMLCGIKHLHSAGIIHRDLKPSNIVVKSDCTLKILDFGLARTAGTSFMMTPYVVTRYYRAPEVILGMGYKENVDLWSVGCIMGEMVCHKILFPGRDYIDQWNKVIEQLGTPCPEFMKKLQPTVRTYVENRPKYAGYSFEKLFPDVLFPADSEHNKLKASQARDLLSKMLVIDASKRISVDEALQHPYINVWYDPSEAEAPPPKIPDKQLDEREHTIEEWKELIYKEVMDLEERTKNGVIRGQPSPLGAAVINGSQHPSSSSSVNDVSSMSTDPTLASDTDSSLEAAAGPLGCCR
Description: In order to screen an inhibitor of MKK7, a completely activated MKK7 was prepared as follows. Illustratively stated, as an activation factor for MKK7, MEKK1 which is suspected to exist in the upstream of MKK7 and activate MKK7, was used. A commercially available MEKK1 gene (manufactured and sold by Stratagene Cloning Systems, USA) was inserted into an E. coli expression vector in which the origin of replication (ori) is p15A, to thereby prepare recombinant MEKK1 vector. The whole DNA of human MKK7 was inserted into vector pGEX-4T1 (manufactured and sold by Pharmacia Biotech AB, Sweden), to thereby prepare recombinant GST-MKK7 vector. Two recombinant expression vectors prepared above were co-transformed into E. coli DH5α to thereby obtain an activated GST-MKK7, and the activated GST-MKK7 was purified from E. coli using Glutathione-Sepharose 4B column (manufactured and sold by Pharmacia Biotech AB, Sweden).
A gene encoding human JNK1 was inserted into vector pGEX-4T1, thereby preparing recombinant GST-JNK1 vector, and the prepared recombinant vector was transformed into and expressed in E. coli. GST-JNK1 was purified from the transformants using Glutathione-Sepharose 4B column (manufactured and sold by Pharmacia Biotech AB, Sweden). […]
Using the activated MKK7 and JNK1 obtained above, the activity of MKK7 was determined in the following manner. […]

B1: mouse SEK1: known MAPK kinase, mouse SEK1 expressed as GST-SEK1 (protein)
chain: MAAPSPSGGGGSGGGGGTPGPIGPPASGHPAVSSMQGKRKALKLNFANPPVKSTARFTLNPNTTGVQNPHIERLRTHSIESSGKLKISPEQHWDFTAEDLKDLGEIGRGAYGSVNKMVHKPSGQIMAVKRIRSTVDEKEQKQLLMDLDVVMRSSDCPYIVQFYGALFREGDCWICMELMSTSFDKFYKYVYSVLDDVIPEEILGKITLATVKALNHLKENLKIIHRDIKPSNILLDRSGNIKLCDFGISGQLVDSIAKTRDAGCRPYMAPERIDPSASRQGYDVRSDVWSLGITLYELATGRFPYPKWNSVFDQLTQVVKGDPPQLSNSEEREFSPSFINFVNLCLTKDESKRPKYKELLKHPFILMYEERTVEVACYVCKILDQMPATPSSPMYVD
modifications: left off: a dimerising Fc or GST
- activation of SAPK3 (phosphorylation of MBP) (SAPK3): activated
- activation of SAPK (phosphorylation of c-Jun) (SAPK): activated
- activation of p38 (phosphorylation of ATF-2) (p38): activated

B2: MKK6: known MAPK kinase, human MKK6 expressed as His-MKK6 (protein)
chain: MSQSKGKKRNPGLKIPKEAFEQPQTSSTPPRDLDSKACISIGNQNFEVKADDLEPIMELGRGAYGVVEKMRHVPSGQIMAVKRIRATVNSQEQKRLLMDLDISMRTVDCPFTVTFYGALFREGDVWICMELMDTSLDKFYKQVIDKGQTIPEDILGKIAVSIVKALEHLHSKLSVIHRDVKPSNVLINALGQVKMCDFGISGYLVDSVAKTIDAGCKPYMAPERINPELNQKGYSVKSDIWSLGITMIELAILRFPYDSWGTPFQQLKQVVEEPSPQLPADKFSAEFVDFTSQCLKKNSKERPTYPELMQHPFFTLHESKGTDVASFVKLILGD
modifications: left off: small tags and cut ends
- activation of SAPK3 (phosphorylation of MBP) (SAPK3): activated
- activation of SAPK (phosphorylation of c-Jun) (SAPK): did not activate
- activation of p38 (phosphorylation of ATF-2) (p38): activated

B3: mouse MKK7: novel MAPK kinase derived from mouse brain, amino acid sequence SEQ ID NO: 4 (protein)
chain: MAASSLEQKLSRLEAKLKQENREARRRIDLNLDISPQRPRPIIVITLSPAPAPSQRAALQLPLANDGGSRSPSSESSPQHPTPPTRPRHMLGLPSTLFTPRSMESIEIDQKLQEIMKQTGYLTIGGQRYQAEINDLENLGEMGSGTCGQVWKMRFRKTGHIIAVKQMRRSGNKEENKRILMDLDVVLKSHDCPYIVQCFGTFITNTDVFIAMELMGTCAEKLKKRMQGPIPERILGKMTVAIVKALYYLKEKHGVIHRDVKPSNILLDERGQIKLCDFGISGRLVDSKAKTRSAGCAAYMAPERIDPPDPTKPDYDIRADVWSLGISLVELATGQFPYKNCKTDFEVLTKVLQEEPPLLPGHMGFSGDFQSFVKDCLTKDHRKRPKYNKLLEHSFIKHYEILEVDVASWFKDVMAKTESPRTSGVLSQHHLPFFSGSLEESPTSPPSPKSFPLSPAIPQAQAEWVSGR
- optimum pH [1]: 7 to 8 pH
- temperature at which MKK7 is deactivated [1]: ≥ 70 °C
- activation of SAPK3 (phosphorylation of MBP) (SAPK3): did not activate
- activation of SAPK (phosphorylation of c-Jun) (SAPK): specifically activated
- activation of p38 (phosphorylation of ATF-2) (p38): did not activate

B4: MKK7KL: dominant negative form of mouse MKK7, 165th Lysine (K) substituted with leucine (L), SEQ ID NO: 10 (protein)
chain: MAASSLEQKLSRLEAKLKQENREARRRIDLNLDISPQRPRPIIVITLSPAPAPSQRAALQLPLANDGGSRSPSSESSPQHPTPPTRPRHMLGLPSTLFTPRSMESIEIDQKLQEIMKQTGYLTIGGQRYQAEINDLENLGEMGSGTCGQVWKMRFRKTGHIIAVLQMRRSGNKEENKRILMDLDVVLKSHDCPYIVQCFGTFITNTDVFIAMELMGTCAEKLKKRMQGPIPERILGKMTVAIVKALYYLKEKHGVIHRDVKPSNILLDERGQIKLCDFGISGRLVDSKAKTRSAGCAAYMAPERIDPPDPTKPDYDIRADVWSLGISLVELATGQFPYKNCKTDFEVLTKVLQEEPPLLPGHMGFSGDFQSFVKDCLTKDHRKRPKYNKLLEHSFIKHYEILEVDVASWFKDVMAKTESPRTSGVLSQHHLPFFSGSLEESPTSPPSPKSFPLSPAIPQAQAEWVSGR
- TNF-α-induced activation of SAPK/JNK in a cell expressing MKK7KL (SAPK/JNK): suppressed

B5: activated MKK7: human MKK7 (SEQ ID NO: 2) as GST fusion, activated by co-expression with MEKK1 in E. coli (protein)
chain: AASSLEQKLSRLEAKLKQENREARRRIDLNLDISPQRPRPIIVITLSPAPAPSQRAALQLPLANDGGSRSPSSESSPQHPTPPARPRHMLGLPSTLFTPRSMESIEIDQKLQEIMKQTGYLTIGGQRYQAEINDLENLGEMGSGTCGQVWKMRFRKTGHVIAVKQMRRSGNKEENKRILMDLDVVLKSHDCPYIVQCFGTFITNTDVFIAMELMGTCAEKLKKRMQGPIPERILGKMTVAIVKALYYLKEKHGVIHRDVKPSNILLDERGQIKLCDFGISGRLVDSKAKTRSAGCAAYMAPERIDPPDPTKPDYDIRADVWSLGISLVELATGQFPYKNCKTDFEVLTKVLQEEPPLLPGHMGFSGDFQSFVKDCLTKDHRKRPKYNKLLEHSFIKRYETLEVDVASWFKDVMAKTESPRTSGVLSQPHLPFFR
modifications: left off: a dimerising Fc or GST
- activity of MKK7 (presence of activated JNK1) (JNK1): confirmed
